# Results published in patent publication US20150017665A1, “Peptides and Methods for Detecting MPO-ANCA” (The University of North Carolina at Chapel Hill, priority 2012, published 2015).
# Assays:
# mice = conditions: Ooi et al. 2012; cited from earlier work
# [1] = test system: MPO-ANCA IgG (polyclonal); experiment: Effect of CP on binding of polyclonal MPO-ANCA Ig to native MPO (ELISA); design: species or system human; conditions: MPO-ANCA IgG from four patients
# Excerpt: (§1) To isolate the putative serum factor, immobilized MPO aa447-459 peptide was used as bait to fish-out host proteins with binding capacity. […] However, the CP bound to aa447-459 was primarily a 50 kD protein on sodium dodecyl sulfate polyacrylamide gel electrophoresis (SDS-PAGE), while full length CP is 151 kD (FIG. 6D). An anti-ceruloplasmin western blot confirmed the fragment to be a portion of CP (FIG. 6E). To test the role of proteolytic cleavage in generating the blocking factor, a plasmin-generated fragment of CP (Kingston et al., Proc. Natl. Acad. Sci. USA 74:5377 (1977)) was tested for epitope masking capability (FIG. 6F).
# MPO peptide aa447-459 = biological target: T1, MPO peptide aa447-459 (Homo sapiens, UniProt P05164); experiment: Serum proteins binding to immobilized MPO peptide aa447-459; conditions: identified by mass spectrometry
# T1 construct: made in house; host or cells: chemical synthesis (a peptide core is named only for the ELISA peptides)
# Excerpt: (§2) Serum proteins that bound immobilized MPO peptide aa447-459 were eluted and sequenced for identification. […] Sequenced on a 4800 MALDI TOF-TOF, the protein was identified as ceruloplasmin (CP), and confirmed by western blot analysis probed with a rabbit anti-human anti-CP polyclonal antibody (Abeam). Native CP was purchased (Enzo Life Science) and proteolytically digested in vitro by plasmin (Haemtech).
# as §1
# [2] = test system: anti-MPO^447-459 autoantibody; experiment: Epitope masking ELISA with ceruloplasmin and its fragments; format: binding, human; conditions: ELISA
# Excerpt: as §2, §1
Molecule,induction of glomerulonephritis (mice),effect on binding of polyclonal MPO-ANCA Ig to native MPO [1],binding to immobilized MPO aa447-459 peptide (MPO peptide aa447-459),epitope masking capability [2],epitope masking capability ([2]; listed as full-length CP)
PRWNGEKLYQEARKIVGAMV (listed as Homo sapiens) [murine MPO peptide aa409-428],induces glomerulonephritis in mice,–,–,–,–
"full length CP: full length ceruloplasmin, 151 kD, purchased (Enzo Life Science) (protein) KEKHYYIGIIETTWDYASDHGEKKLISVDTEHSNIYLQNGPDRIGRLYKKALYLQYTDETFRTTIEKPVWLGFLGPIIKAETGDKVYVHLKNLASRPYTFHSHGITYYKEHEGAIYPDNTTDFQRADDKVYPGEQYTYMLLATEEQSPGEGDGNCVTRIYHSHIDAPKDIASGLIGPLIICKKDSLDKEKEKHIDREFVVMFSVVDENFSWYLEDNIKTYCSEPEKVDKDNEDFQESNRMYSVNGYTFGSLPGLSMCAEDRVKWYLFGMGNEVDVHAAFFHGQALTNKNYRIDTINLFPATLFDAYMVAQNPGEWMLSCQNLNHLKAGLQAFFQVQECNKSSSKDNIRGKHVRHYYIAAEEIIWNYAPSGIDIFTKENLTAPGSDSAVFFEQGTTRIGGSYKKLVYREYTDASFTNRKERGPEEEHLGILGPVIWAEVGDTIRVTFHNKGAYPLSIEPIGVRFNKNNEGTYYSPNYNPQSRSVPPSASHVAPTETFTYEWTVPKEVGPTNADPVCLAKMYYSAVEPTKDIFTGLIGPMKICKKGSLHANGRQKDVDKEFYLFPTVFDENESLLLEDNIRMFTTAPDQVDKEDEDFQESNKMHSMNGFMYGNQPGLTMCKGDSVVWYLFSAGNEADVHGIYFSGNTYLWRGERRDTANLFPQTSLTLHMWPDTEGTFNVECLTTDHYTGGMKQKYTVNQCRRQSEDSTFYLGERTYYIAAVEVEWDYSPQREWEKELHHLQEQNVSNAFLDKGEFYIGSKYKKVVYRQYTDSTFRVPVERKAEEEHLGILGPQLHADVGDKVKIIFKNMATRPYSIHAHGVQTESSTVTPTLPGETLTYVWKIPERSGAGTEDSACIPWAYYSTVDQVKDLYSGLIGPLIVCRRPYLKVFNPRRKLEFALLFLVFDENESWYLDDNIKTYSDHPEKVNKDDEEFIESNKMHAINGRMFGNLQGLTMHVGDEVNWYLMGMGNEIDLHTVHFHGHSFQYKHRGVYSSDVFDIFPGTYQTLEMFPRTPGIWLLHCHVTDHIHAGMETTYTVLQNEDTKSG",–,unaffected,identified by mass spectrometry as a binding partner,did not,did not mask the epitope
